# Like-named read-outs stand apart in the source and are kept apart here.
# Key:
# [1] = molecular target: C-terminally biotinylated IL-13Rα1 (UniProt P78552); experiment: SPR
# [2] = molecular target: C-terminally biotinylated IL-13Rα2 (human) (UniProt Q14627); experiment: SPR
# [3] = molecular target: T1, Human IL-13 (amino acids 21–132), wild type, fully glycosylated (human, UniProt P35225 35-146, fully glycosylated); experiment: ITC
# [4] = molecular target: IL-13 F107A (human); experiment: ITC
# [5] = molecular target: IL-13 K104A (human); experiment: ITC
# [6] = molecular target: T1, Human IL-13 (amino acids 21–132), wild …; experiment: ITC; remark: listed apart in the source
koff [1] [s⁻¹],kon [1] [M⁻¹ s⁻¹],koff [2] [s⁻¹],kon [2] [M⁻¹ s⁻¹],Molecule,other results
0.00443,3.26e+06,–,–,IL-13 V18A (ligand),–
0.00487,1.87e+06,–,–,IL-13 R11A (ligand),–
0.00463,3.53e+06,–,–,IL-13 L101A (ligand),–
0.00445,2.82e+06,–,–,IL-13 E15A (ligand),–
–,–,0.00271,9.64e+06,IL-13 K104A (ligand),–
0.00751,2.74e+06,–,–,IL-13 D87A (ligand),–
–,–,0.000152,1.79e+07,IL-13 I14A (ligand),–
–,–,0.000945,1.15e+07,IL-13 F107A (ligand),–
0.00771,1.31e+06,1.06e-05,9.16e+06,IL-13 K105A (ligand),–
0.00488,–,–,–,IL-13 T88A (ligand),–
–,–,–,–,"IL-13Rα2 ectodomain (amino acids 29–331) (receptor, human, UniProt Q14627 29-331, looked up, fully glycosylated) EIKVNPPQDFEIVDPGYLGYLYLQWQPPLSLDHFKECTVEYELKYRNIGSETWKTIITKNLHYKDGFDLNKGIEAKIHTLLPWQCTNGSEVQSSWAETTYWISPQGIPETKVQDMDCVYYNWQYLLCSWKPGIGVLLDTNYNLFYWYEGLDHALQCVDYIKADGQNIGCRFPYLEASDYKDFYICVNGSSENKPIRSSYFTFQLQNIVKPLPPVYLTFTRESSCEIKLKWSIPLGPIPARCFDYEIEIREDDTTLVTATVENETYTLKTTNETRQLCFVVRSKVNIYCSDDGIWSEWSDKQCW",dH [3]: -20.1 kcal/mol; stoichiometry N [3]: 0.943; dH [4]: -17.1 kcal/mol; stoichiometry N [4]: 0.949; dH [5]: -20.4 kcal/mol; stoichiometry N [5]: 0.884; dH [6]: -20 kcal/mol; stoichiometry N [6]: 0.98
–,–,–,–,"IL-13Rα1 soluble extracellular domain (receptor, UniProt P78552 22-343, looked up, fully glycosylated) GGGGAAPTETQPPVTNLSVSVENLCTVIWTWNPPEGASSNCSLWYFSHFGDKQDKKIAPETRRSIEVPLNERICLQVGSQCSTNESEKPSILVEKCISPPEGDPESAVTELQCIWHNLSYMKCSWLPGRNTSPDTNYTLYYWHRSLEKIHQCENIFREGQYFGCSFDLTKVKDSSFEQHSVQIMVKDNAGKIKPSFNIVPLTSRVKPDPPHIKNLSFHNDDLYVQWENPQNFISRCLFYEVEVNNSQTETHNVFYVQEAKCENPEFERNVENTSCFMVPGVLPDTLNTVRIRVKTNKLCYEDDKLWSNWSQEMSIGKKRNST",dH [6]: -11.4 kcal/mol; stoichiometry N [6]: 0.937

# From PMC2850121 (Structure (London, England : 1993), 2010)
